Reference: publication doi:10.1101/2022.04.19.488791 (bioRxiv, 2022)
Like-named read-outs stand apart in the source and are kept apart here.

B1: ribosomal protein uS5 of the 40S subunit (natural protein, UniProt P25443 1-254, looked up)
chain: MSAPEAQQQKRGGFGGRNRGRPNRRGPRNTEEKGWVPVTKLGRLVKAGKITTIEEIFLHSLPVKEFQIIDTLLPGLQDEVMNIKPVQKQTRAGQRTRFKAVVVVGDSNGHVGLGIKTAKEVAGAIRAGIIIAKLSVIPIRRGYWGTNLGQPHSLATKTTGKCGSVTVRLIPAPRGSGIVASPAVKKLLQLAGVEDVYTQSNGKTRTLENTLKAAFVAIGNTYGFLTPNLWAEQPLPVSPLDIYSDEASAQKKRF
B2: ribosomal protein uS3 of the 40S subunit (natural protein, UniProt P05750 1-240, looked up)
chain: MVALISKKRKLVADGVFYAELNEFFTRELAEEGYSGVEVRVTPTKTEVIIRATRTQDVLGENGRRINELTLLVQKRFKYAPGTIVLYAERVQDRGLSAVAQAESMKFKLLNGLAIRRAAYGVVRYVMESGAKGCEVVVSGKLRAARAKAMKFADGFLIHSGQPVNDFIDTATRHVLMRQGVLGIKVKIMRDPAKSRTGPKALPDAVTIIEPKEEEPILAPSVKDYRPAEETEAQAEPVEA
B3: RACK1 (Asc1) of the 40S head (natural protein, UniProt P38011 1-319, looked up)
chain: MASNEVLVLRGTLEGHNGWVTSLATSAGQPNLLLSASRDKTLISWKLTGDDQKFGVPVRSFKGHSHIVQDCTLTADGAYALSASWDKTLRLWDVATGETYQRFVGHKSDVMSVDIDKKASMIISGSRDKTIKVWTIKGQCLATLLGHNDWVSQVRVVPNEKADDDSVTIISAGNDKMVKAWNLNQFQIEADFIGHNSNINTLTASPDGTLIASAGKDGEIMLWNLAAKKAMYTLSAQDEVFSLAFSPNRYWLAAATATGIKVFSLDPQYLVDDLRPEFAGYSKAAEPHAVSLAWSADGQTLFAGYTDNVIRVWQVMTAN
B4: Rqt4, zinc-finger containing subunit of RQT (natural protein, yeast, UniProt P36119 1-530, looked up)
chain: MTRKQAIDYAIKQVPQILPLEESDVKALCEQVLSTSSDDPEQIASKFLEFLGHEDLSFEFVMKFNELLNQNDKKEEKKTKNVHLEHTAPTSWKNESKQPTNNYINKKGDEKPKKLKDEKKSSTTRPTVQPSNQSTQSNPIKEKKEHRSKGKLQSLQEIDEAIKMLELRDSGSSKNCNCQGTRHPVFDIAPNCLHCGKVVCVIEGLNKGKCGHCHEQLISDNERTQMVEILNQEKNELNGSSSSLSNASNGANVPKKKTKTYKITSGMGKNLFAEQDKLFDFIERKRERERKRNEVLKLQEEKEESEAKERQASEHDHKAEENPELLAAQERLDRLLYFQDTSAERTKIIDNASDFDMNQEVGLWGSARERALALKKQQRNLRKWEKVEKERNGRREKYVVSMNIGSNGKVTMTEVPKDTENVIAGSDDDISDISDEEDISDLKHIHALKSEINTTKSLENLHLQSKAWDYERDKKQFDRPTYVKKNSDTAQQNRKTEEKAHDMQAYDLKSRVQVDQNADASVEQNILAVL
B5: Cue3, ubiquitin-binding CUE domain containing subunit of RQT (natural protein, yeast, UniProt P53137 1-624, looked up)
chain: MLSRYNRVIEINGGNADISLPIVKFPPFKLRAQLIEKDPVVWLHLIETYVTYFEYLMQGANVELLDESTLDHLRLFLRTYLHEIADEEGKLLSLGINHDVSEQLYLLKGWIFSLIKKCGLLHLQIFGDSLWNLIKVYVRRNPDSIRGLIDGSLKPRINTQRVQLDKSYQVQQHLKQLIESGKFKRIDLRCVEDLLSAKSMQPNKFAENFFTANWIEILEALWAKGQGRGHKEARELIIISLFSVSADRLLKITKELGISNFETLALYPLLGTMLINEGVHKRLPDLKSKLLFLNLGGLSMDEGDHMSYPTSSGTEVNEEQLSALMELFPQFSKYQLSQTLLAYDNNIELVTNKIFEDPTIIEAFSREPAEEEVEPVSDGDNASFTEELSILDRGDSSKNKELDKKIISEGVPDELRNKTLTRALKLLYEADEDERDDTYDEADVNRSDPSKRIGLQEDEESYDTKDDSNEVRQDHNYHIVEAYLWNLLKEDPKLFERSKRGTKVRKTMKEMTSWSDEKIEGWCRMLERSPTRARLLEKKFMFKGNSKTGKTSYVHNRDSQNDGNVVKEQAKQKKSENIKKHEPQSTEQKKRQHAKNEKRKGARANHNRKKGHDKKLARAGNNAI

Legend:
Test in all cases: cryo-EM structure
[1] = molecular target: T1, Slh1 helicase subunit of the ribosome quality control trigger complex RQT (wild type) (yeast, UniProt P53327 1-1967)
T1 sequence (P53327 whole entry, one chain of several): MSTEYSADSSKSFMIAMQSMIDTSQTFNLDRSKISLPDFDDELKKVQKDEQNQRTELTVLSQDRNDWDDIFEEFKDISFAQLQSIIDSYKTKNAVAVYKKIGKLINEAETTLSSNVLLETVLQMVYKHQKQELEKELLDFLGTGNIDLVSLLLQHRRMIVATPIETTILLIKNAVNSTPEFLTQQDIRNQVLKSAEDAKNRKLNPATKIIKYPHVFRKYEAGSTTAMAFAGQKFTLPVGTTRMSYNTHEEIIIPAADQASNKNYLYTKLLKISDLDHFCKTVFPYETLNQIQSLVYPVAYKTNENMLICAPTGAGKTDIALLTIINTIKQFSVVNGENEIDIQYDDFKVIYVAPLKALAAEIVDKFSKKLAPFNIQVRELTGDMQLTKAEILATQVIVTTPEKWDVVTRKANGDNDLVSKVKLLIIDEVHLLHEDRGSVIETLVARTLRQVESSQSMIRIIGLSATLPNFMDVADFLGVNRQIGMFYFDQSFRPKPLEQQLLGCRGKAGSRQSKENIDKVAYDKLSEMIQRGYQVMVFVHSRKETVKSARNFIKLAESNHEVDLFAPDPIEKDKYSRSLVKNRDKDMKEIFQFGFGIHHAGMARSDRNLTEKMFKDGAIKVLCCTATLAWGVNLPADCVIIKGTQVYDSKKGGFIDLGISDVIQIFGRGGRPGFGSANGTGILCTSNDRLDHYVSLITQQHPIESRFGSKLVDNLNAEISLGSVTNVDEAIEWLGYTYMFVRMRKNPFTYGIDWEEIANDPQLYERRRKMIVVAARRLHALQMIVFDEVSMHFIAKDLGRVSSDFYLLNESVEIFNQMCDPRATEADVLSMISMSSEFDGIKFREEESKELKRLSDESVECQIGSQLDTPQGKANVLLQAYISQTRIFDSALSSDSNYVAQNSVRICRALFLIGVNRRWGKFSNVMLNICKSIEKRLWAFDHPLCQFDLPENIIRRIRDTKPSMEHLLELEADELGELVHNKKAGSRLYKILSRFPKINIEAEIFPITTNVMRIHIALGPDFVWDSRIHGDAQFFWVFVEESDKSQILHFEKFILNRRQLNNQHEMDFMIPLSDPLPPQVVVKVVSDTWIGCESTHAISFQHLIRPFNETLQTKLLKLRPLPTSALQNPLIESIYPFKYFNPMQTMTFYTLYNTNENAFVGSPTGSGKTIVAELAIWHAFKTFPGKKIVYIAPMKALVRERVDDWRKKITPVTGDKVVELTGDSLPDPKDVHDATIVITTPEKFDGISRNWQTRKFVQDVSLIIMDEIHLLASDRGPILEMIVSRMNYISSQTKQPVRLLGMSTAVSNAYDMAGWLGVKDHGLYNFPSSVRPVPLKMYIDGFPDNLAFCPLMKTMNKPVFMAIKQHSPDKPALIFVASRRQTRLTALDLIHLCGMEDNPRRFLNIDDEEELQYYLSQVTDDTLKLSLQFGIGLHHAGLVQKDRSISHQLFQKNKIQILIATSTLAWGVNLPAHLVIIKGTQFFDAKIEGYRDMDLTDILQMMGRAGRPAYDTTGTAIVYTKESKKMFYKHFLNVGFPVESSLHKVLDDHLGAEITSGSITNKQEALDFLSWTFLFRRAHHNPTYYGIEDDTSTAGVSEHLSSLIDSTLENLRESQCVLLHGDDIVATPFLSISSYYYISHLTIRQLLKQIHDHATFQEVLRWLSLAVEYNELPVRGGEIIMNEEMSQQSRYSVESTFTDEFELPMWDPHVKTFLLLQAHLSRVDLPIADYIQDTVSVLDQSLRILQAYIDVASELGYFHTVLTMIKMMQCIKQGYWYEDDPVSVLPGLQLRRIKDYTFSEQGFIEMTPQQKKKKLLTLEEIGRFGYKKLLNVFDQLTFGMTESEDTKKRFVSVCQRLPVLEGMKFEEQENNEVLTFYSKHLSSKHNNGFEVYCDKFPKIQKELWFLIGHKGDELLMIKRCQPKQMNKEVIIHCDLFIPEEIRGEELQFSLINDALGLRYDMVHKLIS

[2] = molecular target: Slh1-K316R, ATPase-deficient Slh1 subunit of K316R-RQT (yeast, UniProt P53327 1-1967, K316R)
Chain of Slh1-K316R, ATPase-deficient Slh1 subunit of K316R-RQT (P53327 whole entry K316R): as the sequence (P53327 whole entry, one chain of several) above, with K316R counted along it

[3] = molecular target: T1, Slh1 helicase subunit of the ribosome …; remark: listed apart in the source

Row | Binder | binding result [1] | binding result [2] | binding result [3]
1 | B1 | binds |  | 
2 | B2 | binds |  | 
3 | B3 | binds |  | 
4 | B4 |  | binds | binds
5 | B5 |  | binds | binds
